The text below walks through data of patent publication US20150258192A1, “COMPOSITIONS AND METHODS FOR PREVENTING OR TREATING CHRONIC LUNG ALLOGRAFT DYSFUNCTION (CLAD) AND IDIOPATHIC PULMONARY FIBROSIS (IPF)” (priority 2014, published 2015).

No end group written: not given here.

Test in all cases: Kinase Profiling Assay
Common to all, as to format: biochemical
Common to all, as to settings: peptide 100 μM

Test [1] addresses PKBα(h) (Homo sapiens, UniProt P31749). The method, boiled down:
(§1)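 Scintillation counting quantifies radiolabeled, positively charged substrate retained on a negatively charged filter after kinase reaction with labeled ATP; inhibitor peptide present.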

Test [2] addresses CK1δ(h) (Homo sapiens, UniProt P48730). The method, boiled down:
as §1

In test [3] the target is T1, Met(D1246N)(h) (Homo sapiens, UniProt P08581, D1228N).
T1 construct: purchased Millipore
The method in brief:
as §1

Test [4] concerns the target CSK(h) (Homo sapiens, UniProt P41240). The method, boiled down: as §1
Test [5] deals with T2, NEK6(h) (Homo sapiens, UniProt Q9HC98).
T2 construct: purchased Millipore
T2 sequence (Q9HC98 whole entry): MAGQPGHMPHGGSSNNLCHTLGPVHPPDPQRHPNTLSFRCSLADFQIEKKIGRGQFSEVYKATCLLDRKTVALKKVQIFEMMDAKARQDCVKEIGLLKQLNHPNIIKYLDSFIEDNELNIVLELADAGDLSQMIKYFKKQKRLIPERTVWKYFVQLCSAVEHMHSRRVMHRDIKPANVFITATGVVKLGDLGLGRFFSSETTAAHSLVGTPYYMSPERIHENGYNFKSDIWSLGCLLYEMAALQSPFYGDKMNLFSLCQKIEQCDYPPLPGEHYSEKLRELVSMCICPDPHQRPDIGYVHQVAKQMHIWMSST
The method, boiled down: as §1

For test [6], the target named is FGFR1(h) (Homo sapiens, UniProt P11362). The method in brief: as §1
Sequence of FGFR1(h) (P11362 22-822): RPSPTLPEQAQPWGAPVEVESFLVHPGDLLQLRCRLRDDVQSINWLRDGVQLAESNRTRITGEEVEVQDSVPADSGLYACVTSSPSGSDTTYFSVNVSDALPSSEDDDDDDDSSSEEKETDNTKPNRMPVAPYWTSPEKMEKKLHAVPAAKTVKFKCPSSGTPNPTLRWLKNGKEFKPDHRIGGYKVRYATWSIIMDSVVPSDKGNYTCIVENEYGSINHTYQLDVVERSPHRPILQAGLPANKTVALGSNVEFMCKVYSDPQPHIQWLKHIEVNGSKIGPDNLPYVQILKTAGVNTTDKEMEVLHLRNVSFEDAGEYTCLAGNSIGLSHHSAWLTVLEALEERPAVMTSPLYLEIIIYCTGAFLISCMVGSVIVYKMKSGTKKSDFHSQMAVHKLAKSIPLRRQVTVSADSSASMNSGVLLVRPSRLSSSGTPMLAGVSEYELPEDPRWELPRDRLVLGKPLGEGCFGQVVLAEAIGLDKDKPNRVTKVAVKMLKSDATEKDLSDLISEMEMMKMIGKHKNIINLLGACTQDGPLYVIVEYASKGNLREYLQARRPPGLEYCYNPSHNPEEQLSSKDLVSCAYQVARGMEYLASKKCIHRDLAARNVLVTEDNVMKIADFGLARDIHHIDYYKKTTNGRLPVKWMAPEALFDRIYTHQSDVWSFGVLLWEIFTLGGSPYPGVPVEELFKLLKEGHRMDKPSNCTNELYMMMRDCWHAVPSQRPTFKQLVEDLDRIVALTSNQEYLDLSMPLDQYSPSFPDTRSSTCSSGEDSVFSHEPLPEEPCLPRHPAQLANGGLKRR
The target in test [7] is Fms(Y969C)(h) (Homo sapiens, UniProt P07333, Y969C). The method, boiled down:
as §1

Test [8] addresses Flt3(h) (Homo sapiens, UniProt P36888). The method in brief: as §1
The target in test [9] is Pyk2(h) (Homo sapiens, UniProt Q14289). The method, boiled down:
as §1

The target in test [10] is cKit(D816V)(h) (Homo sapiens, UniProt P10721, D816V). The method in brief:
as §1

Test [11] concerns the target T3, TAO2(h) (Homo sapiens, UniProt Q9UL54).
T3 construct: purchased Millipore
T3 sequence (Q9UL54 1-1235): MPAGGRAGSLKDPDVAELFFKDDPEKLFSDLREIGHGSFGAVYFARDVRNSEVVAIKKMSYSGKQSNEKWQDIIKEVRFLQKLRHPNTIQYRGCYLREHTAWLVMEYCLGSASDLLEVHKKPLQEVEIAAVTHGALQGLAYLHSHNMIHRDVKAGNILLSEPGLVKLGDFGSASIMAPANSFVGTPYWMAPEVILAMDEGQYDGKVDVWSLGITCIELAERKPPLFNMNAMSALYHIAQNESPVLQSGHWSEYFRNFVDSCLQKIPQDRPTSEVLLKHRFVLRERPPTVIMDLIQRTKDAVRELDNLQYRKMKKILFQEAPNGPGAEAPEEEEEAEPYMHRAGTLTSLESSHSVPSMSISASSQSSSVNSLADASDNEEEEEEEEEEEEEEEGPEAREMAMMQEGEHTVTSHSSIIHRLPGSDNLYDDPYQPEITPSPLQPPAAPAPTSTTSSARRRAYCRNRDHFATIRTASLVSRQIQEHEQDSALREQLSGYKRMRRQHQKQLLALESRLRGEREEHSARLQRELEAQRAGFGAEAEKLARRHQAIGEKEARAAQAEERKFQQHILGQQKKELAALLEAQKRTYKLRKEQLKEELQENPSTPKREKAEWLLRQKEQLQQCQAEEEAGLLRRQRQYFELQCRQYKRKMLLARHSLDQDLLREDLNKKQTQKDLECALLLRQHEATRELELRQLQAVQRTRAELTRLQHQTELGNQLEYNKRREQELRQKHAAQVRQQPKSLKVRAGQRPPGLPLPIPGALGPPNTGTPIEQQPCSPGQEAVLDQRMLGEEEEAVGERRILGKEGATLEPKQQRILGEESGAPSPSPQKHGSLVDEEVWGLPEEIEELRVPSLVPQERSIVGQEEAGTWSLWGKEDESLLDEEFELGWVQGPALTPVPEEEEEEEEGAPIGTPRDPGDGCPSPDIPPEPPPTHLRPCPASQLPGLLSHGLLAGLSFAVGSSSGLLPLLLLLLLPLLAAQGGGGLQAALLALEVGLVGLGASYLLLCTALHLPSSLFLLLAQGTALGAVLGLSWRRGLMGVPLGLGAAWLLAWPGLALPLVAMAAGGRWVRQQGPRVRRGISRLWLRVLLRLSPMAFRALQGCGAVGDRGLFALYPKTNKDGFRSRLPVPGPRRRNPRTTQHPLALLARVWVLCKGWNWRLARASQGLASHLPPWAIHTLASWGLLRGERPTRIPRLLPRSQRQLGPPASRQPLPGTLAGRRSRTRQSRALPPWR
The method in brief: as §1

In test [12] the target is T4, SRPK2(h) (Homo sapiens, UniProt P78362).
T4 construct: purchased Millipore
T4 sequence (P78362 whole entry): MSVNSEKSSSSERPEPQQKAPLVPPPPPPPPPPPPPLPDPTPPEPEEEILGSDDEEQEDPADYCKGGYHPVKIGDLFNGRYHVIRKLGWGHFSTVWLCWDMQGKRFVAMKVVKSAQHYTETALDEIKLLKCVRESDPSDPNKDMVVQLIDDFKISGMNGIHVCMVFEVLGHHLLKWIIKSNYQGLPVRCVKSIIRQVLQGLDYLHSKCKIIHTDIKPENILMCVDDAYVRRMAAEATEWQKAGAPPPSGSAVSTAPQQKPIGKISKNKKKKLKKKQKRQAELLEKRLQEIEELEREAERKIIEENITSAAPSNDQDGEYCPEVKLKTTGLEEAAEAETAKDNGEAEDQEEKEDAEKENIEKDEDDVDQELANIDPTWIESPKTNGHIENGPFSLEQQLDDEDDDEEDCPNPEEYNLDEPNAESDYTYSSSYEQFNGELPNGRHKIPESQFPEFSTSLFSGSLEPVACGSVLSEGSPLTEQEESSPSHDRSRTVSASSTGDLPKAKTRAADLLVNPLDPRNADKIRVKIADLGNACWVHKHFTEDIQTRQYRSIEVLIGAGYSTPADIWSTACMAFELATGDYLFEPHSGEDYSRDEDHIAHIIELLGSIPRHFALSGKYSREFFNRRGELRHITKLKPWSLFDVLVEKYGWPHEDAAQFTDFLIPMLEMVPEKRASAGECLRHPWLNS
The method in brief: as §1

Sequence of CK1δ(h) (P48730 whole entry): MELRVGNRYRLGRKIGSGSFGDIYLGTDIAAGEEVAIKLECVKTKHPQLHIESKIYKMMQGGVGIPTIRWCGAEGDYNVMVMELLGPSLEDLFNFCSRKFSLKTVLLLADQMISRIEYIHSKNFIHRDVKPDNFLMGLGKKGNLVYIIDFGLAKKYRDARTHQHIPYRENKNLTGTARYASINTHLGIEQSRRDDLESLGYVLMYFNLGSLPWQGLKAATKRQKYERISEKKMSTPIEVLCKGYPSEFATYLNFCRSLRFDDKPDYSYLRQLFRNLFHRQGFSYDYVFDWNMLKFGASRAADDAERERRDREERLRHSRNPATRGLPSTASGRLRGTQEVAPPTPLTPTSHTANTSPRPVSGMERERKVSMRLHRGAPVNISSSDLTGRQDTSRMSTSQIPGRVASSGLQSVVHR
Sequence of PKBα(h) (P31749 whole entry): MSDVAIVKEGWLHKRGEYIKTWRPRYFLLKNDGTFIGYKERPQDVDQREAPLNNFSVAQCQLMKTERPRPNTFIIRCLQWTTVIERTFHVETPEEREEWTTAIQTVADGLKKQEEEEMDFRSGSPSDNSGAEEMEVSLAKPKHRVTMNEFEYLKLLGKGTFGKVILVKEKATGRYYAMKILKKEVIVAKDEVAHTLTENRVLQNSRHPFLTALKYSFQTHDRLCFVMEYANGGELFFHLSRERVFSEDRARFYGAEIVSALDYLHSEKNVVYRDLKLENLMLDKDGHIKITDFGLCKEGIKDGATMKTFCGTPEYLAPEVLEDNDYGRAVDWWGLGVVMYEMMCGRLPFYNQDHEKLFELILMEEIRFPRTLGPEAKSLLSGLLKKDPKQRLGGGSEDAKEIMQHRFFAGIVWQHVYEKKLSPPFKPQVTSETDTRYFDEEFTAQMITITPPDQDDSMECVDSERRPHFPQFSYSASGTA
Sequence of Pyk2(h) (Q14289 whole entry): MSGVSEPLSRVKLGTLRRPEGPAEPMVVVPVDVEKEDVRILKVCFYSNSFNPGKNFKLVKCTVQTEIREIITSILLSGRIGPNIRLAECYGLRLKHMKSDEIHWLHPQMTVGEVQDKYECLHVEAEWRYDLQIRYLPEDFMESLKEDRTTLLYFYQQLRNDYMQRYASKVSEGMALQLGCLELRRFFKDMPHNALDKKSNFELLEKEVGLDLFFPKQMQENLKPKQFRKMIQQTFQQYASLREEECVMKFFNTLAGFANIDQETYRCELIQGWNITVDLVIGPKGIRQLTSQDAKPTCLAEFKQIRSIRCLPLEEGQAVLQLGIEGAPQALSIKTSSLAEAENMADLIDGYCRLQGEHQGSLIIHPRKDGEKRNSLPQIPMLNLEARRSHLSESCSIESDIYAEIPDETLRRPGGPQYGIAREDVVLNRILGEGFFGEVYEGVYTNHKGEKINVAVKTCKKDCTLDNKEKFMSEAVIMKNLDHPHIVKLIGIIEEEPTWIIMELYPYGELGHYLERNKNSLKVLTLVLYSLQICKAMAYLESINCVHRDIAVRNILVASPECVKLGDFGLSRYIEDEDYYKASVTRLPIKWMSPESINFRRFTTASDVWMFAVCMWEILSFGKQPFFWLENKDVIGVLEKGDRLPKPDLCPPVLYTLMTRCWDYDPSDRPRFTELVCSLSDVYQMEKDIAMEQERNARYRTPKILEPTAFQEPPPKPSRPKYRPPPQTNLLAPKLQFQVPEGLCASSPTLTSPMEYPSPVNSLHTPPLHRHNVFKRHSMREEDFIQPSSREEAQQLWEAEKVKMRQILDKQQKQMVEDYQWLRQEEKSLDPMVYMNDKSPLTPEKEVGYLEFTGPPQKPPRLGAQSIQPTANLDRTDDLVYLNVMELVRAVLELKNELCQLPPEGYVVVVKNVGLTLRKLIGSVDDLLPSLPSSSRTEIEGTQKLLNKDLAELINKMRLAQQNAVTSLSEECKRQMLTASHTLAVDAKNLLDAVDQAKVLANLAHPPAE
Sequence of CSK(h) (P41240 whole entry): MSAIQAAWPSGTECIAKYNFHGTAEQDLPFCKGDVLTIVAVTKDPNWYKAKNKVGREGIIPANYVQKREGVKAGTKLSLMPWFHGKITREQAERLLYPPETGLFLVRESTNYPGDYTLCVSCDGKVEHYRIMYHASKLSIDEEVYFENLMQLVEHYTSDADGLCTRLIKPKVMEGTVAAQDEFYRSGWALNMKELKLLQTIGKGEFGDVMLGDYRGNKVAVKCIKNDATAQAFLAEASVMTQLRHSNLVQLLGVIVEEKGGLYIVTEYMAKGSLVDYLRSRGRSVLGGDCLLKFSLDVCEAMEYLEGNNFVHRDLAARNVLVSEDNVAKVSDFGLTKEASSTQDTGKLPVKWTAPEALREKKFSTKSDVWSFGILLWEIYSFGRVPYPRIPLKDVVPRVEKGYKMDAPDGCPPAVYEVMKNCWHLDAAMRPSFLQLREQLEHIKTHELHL

Take FAKLAARLYRKALARQLGVAA [MMI-0300]: the “% activity” value was determined as 57% in [1]; 92% in test [2]; 82% in test [3]; 49% in test [4]; 82% in test [5]; 55% in test [6]. Moreover, the “% activity” value in test [7] turned out to be 72%; in test [8], 84%; in test [9], 47%; in test [10], 60%; in [11], 70%.
In the case of “HRRIKAWLKKIKALARQLGVAA (Mammal) [MMI-0500]”, the “% activity” value in test [12] is 80%; in [1] it was 30%; in [2], 78%; in test [3], 90%; in [4] it was 2%; in test [5] it was 49%. Moreover, the “% activity” value in [6] was determined as 18%; in test [8] it was 17%; in test [9], 46%; in test [10] it was 30%; in test [11] it was 15%.
Consider KAFAKLAARLYRKALARQLGVAA [MMI-0400], for which the “% activity” value in test [12] was found to be 97%; in [1], 67%; in [2], 93%; in test [3] it was 31%; in test [4], 16%; in test [5] it was 85%. Also, the “% activity” value in test [6] is given as 59%; in test [7] it was 91%; in test [8], 18%; in test [9], 34%; in [10], 35%; in test [11], 74%.
With YARAAARQARAKALARQLGVAA [MMI-0100], the “% activity” value in test [12] was 92%; in [6] it was 120%; in test [7], 126%; in [11], 95%.
As to “YARAAARQARAKALNRQLGVA (Mammal) [MMI-0200]”, the “% activity” value is 100% in test [12]; 110% in [1]; 92% in test [2]; 149% in test [3]; 33% in test [4]; 98% in [5]. The “% activity” value in test [6] came to 97%; in test [7], 88%; in test [8], 99%; in test [9] it was 127%; in [10], 118%; in test [11] it was 93%.
